Assay results as given in US20140056907A1 (Regeneron, published 2014).

T1: human ASIC1 (human, UniProt P78348 1-528)
T1 sequence: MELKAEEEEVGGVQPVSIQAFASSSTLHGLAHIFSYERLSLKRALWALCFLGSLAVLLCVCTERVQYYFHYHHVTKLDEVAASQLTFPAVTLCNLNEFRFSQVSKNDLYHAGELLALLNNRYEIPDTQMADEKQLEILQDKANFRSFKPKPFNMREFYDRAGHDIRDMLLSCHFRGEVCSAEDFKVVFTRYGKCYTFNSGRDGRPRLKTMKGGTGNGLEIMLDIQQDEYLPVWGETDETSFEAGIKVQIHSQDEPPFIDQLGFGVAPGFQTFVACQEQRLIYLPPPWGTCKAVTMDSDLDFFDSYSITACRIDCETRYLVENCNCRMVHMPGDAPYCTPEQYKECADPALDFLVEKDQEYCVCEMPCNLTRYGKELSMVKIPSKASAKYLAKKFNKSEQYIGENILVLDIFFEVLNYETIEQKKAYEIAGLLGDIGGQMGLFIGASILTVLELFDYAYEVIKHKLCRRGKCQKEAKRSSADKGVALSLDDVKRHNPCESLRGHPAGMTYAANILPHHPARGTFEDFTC

T2: mouse ASIC1a (mouse, UniProt Q6NXK8 1-526)
T2 construct: whole, on cells; Expressed on stably transfected 3T3 cells (3T3/mASIC1a); also called mASIC1a
T2 sequence (looked up): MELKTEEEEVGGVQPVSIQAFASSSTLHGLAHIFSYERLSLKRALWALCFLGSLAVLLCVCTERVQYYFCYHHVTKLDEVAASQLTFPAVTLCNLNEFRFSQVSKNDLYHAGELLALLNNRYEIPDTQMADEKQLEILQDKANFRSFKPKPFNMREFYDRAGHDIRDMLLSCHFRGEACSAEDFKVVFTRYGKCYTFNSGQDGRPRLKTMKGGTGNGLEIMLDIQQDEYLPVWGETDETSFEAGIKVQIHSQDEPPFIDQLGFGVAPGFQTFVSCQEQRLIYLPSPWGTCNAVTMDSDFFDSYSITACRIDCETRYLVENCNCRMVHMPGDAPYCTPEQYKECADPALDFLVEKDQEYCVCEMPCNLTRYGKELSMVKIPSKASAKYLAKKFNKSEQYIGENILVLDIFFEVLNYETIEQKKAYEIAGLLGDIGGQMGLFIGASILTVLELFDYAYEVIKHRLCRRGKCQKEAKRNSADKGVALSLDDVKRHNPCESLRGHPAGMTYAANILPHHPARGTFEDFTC


How the values were obtained:
human ASIC1 [1] = target: T1, human ASIC1; assay: cell-based or functional assay
human ASIC1 [2] = target: T1, human ASIC1; assay: cell-based or functional assay; remark: listed apart in the source
mouse ASIC1a = target: T2, mouse ASIC1a; assay: FACS, 3T3/mASIC1a cells
From the text: To further characterize anti-ASIC1 antibodies, their ability to bind either (a) a mouse fibroblast 3T3 cell line stably transfected to overexpress full length human ASIC1 (3T3/hASIC1; amino acids 1-528 of NCBI accession number NP_{—}001086.2 [SEQ ID NO:401]), (b) a 3T3 cell line stably transfected to over express full length mouse ASIC1a (3T3/mASIC1a; amino acids 1-526 of NCBI accession number NP_{—}033727), or (c) a ND7 cell line (ECACC, #92090903) that is a fusion cell line of mouse neuroblastoma and rat dorsal root ganglia that endogenously expresses rat ASIC1, was determined using flow cytometry (FACS). ND7 cells were differentiated by replacing the culture media with low-serum media (0.5% FBS) containing 1 mM dibutyryl-cAMP (Cat. No. sc-201567A, Santa Cruz Biotechnology, Inc., Santa Cruz, Calif.). FACS binding was tested for some antibodies on both undifferentiated ND7 cells and differentiated ND7 cells.
(§1) To perform the FACS binding experiments, adherent cells were collected using 1 mM EDTA in PBS, then washed, and re-suspended in cold PBS containing 5% FBS. For each binding experiment, each anti-ASIC1 antibody (at final concentrations of 10 nM of purified antibodies or 3.3 nM for antibody supernatants for binding to 3T3/hASIC1 cells and 5 nM for binding to 3T3/mASIC1a or ND7 cells) was added to 250,000 cells in 500 μL of PBS with 5% FBS. After incubation for 20 minutes at room temperature, a secondary antibody which recognizes human Fc (Cat. No. 109-136-098, Jackson ImmunoResearch Laboratories, Inc., West Grove, Pa.) or mouse Fc (Cat. No. 550826, BD Biosciences, San Jose, Calif.) and is conjugated to allophycocyanin, was then added to the cell mixture at a final concentration of 13.3 nM. After incubating for 20 minutes on ice, the cells were washed and resuspended in PBS containing 5% FBS, then sorted and analyzed on a flow cytometer (FACSCalibur, BD Biosciences, San Jose, Calif.) to determine relative binding by the candidate antibodies to the tested cell lines. Histograms of cells stained with anti-ASIC1 antibodies were compared with those of cells stained with secondary antibody alone. Percentage of ASIC1 signal over secondary antibody alone was calculated using FlowJo software (Tree Star, Ashland, Oreg.).

human ASIC1 [3] = target: T1, human ASIC1; assay: FACS titration, 3T3/hASIC1 cells
Experimental: as §1, with “([…]” for “(at final concentrations of 10 nM of purified antibodies or 3.3 nM for antibody supernatants for binding to 3T3/hASIC1 cells and 5 nM for binding to 3T3/mASIC1a”

human ASIC1 [4] = target: T1, human ASIC1; assay: cell-based or functional assay; remark: listed apart in the source

| Binder | apparent IC50, human ASIC1 current, Q-Patch (human ASIC1 [1]) | Current inhibition (%) at 100 nM antibody, Q-Patch, pH 6.0 (human ASIC1 [2]) | binding result (mouse ASIC1a) | EC50 (human ASIC1 [3]) | FLIPR Dose Curve, pH 5.0 % Block (human ASIC1 [4]) | FLIPR Dose Curve, pH 5.5 % Block (human ASIC1 [4]) | FLIPR Dose Curve, pH 5.5 IC50 (human ASIC1 [4]) | calculated IC50, inhibition of human ASIC1 current, Port-a-Patch (human ASIC1 [1]) |
| --- | --- | --- | --- | --- | --- | --- | --- | --- |
| H4H6366P (antibody, human IgG4, V domains shown) VH: EVQLVESGGDLIQPGGSLRLSCIASGFTFRGYAMSWVRQAPGEGLDWVSGISSGGGNTYYADSVKGRFTISRDNSKNTLYLQMNSLRVEDTAVYYCAKDRGGVRDFYYGLDVWGQGTTVTVSS VL: DIQMTQSPSTLSASVGDRVTITCRASQSIYSWLAWYQQKPGKAPKLLIYKASSLESGVPSRFSGSGSGTDFTLTISSLQPDDFTTYYCQQYLSYSRTFGQGTKVEIK | ≤ 10 nM | 72% | binds | 1 nM | – | – | – | – |
| H1M7101N (antibody, mouse IgG1, V domains shown) VH: EVQLLASGGGLVQTGGSLRLSCAASGFTFSSFAMSWVRQAPGKGLEWVSGISGSGGSTYYADSVKGRFTISRDNSKNTLYLQMNSLRAEDTAAYYCAKEAYKWQPWGQGIRVTVSS VL: DIQMTQSPSTLSASVGDRVTITCRASQSISSWLAWYQQKPGKAPNLLIYKTSNLESGVPSRFSGSGSGTEFTLTISSLQPDDFATYYCQQYNSYSYTFGQGTKLEIK | < 1 nM | 97% | binds | 0.72 nM | – | – | – | – |
| H1M6718N (antibody, mouse IgG1, V domains shown) VH: EVQLLESGGGLVQPGGSLRLSCAASGFTFSSFAMSWVRQAPGKGLEWVSGISGSGGGTHYADSVKGRFTISRDNSKNMVYLQMNSLRAEDTAAYYCAKEAYKWQPWGQGTLVTVSS VL: DIQMTQSPSTLSASVGDRVIITCRASQRISSWLAWYQQKPGKAPNLLIYKASILESGVPSRFSGSGSGTEFTLTISSLQPDDFATYYCQQYNSYSYTFGQGTKLEIK | < 1 nM | 100% | binds | 0.55 nM | 48% | 78% | 0.6 nM | 0.86 nM |
